From PMC6234862, “The Structure of the Human Respiratory Syncytial Virus M2-1 Protein Bound to the Interaction Domain of the Phosphoprotein P Defines the Orientation of the Complex” (mBio, 2018)
Where no end group is shown, it is not given here. fluorescein = fluorescein label at the peptide N-terminus

T1: M2-1 (Human respiratory syncytial virus …, UniProt P04545 1-194)
T1 sequence: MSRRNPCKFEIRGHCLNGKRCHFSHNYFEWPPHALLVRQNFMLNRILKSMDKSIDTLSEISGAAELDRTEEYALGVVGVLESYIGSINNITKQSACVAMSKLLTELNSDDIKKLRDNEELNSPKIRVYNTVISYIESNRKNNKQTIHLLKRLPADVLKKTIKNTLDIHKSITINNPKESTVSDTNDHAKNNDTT

B1: A13 (poly(A) RNA 13-mer) (ssRNA)
RNA: AAAAAAAAAAAAA
B2: Human respiratory syncytial virus (HRSV) M2-1 protein, full-length native tetramer (natural protein)
chain: T1 sequence
notes: HRSV M2-1 protein, strain A2, M2-1 ORF; 194 amino acids; Also used here as the wild-type M2-1 of the minigenome rows, where it was expressed from a plasmid in BSRT7 cells; also called native M2-1; tetrameric M2-1; source: E. coli BL21(DE3) Gold, purified (glutathione Sepharose, on-column PreScission cleavage, SP Sepharose; Superdex 75 for crystallization); not shown: GST, N-terminal, cleaved
B3: P90-110 peptide, unlabeled (residues 90 to 110 of HRSV P) (peptide, UniProt P03421 90-110, looked up)
peptide: DPTPSDNPFSKLYKETIETFD
notes: HRSV phosphoprotein P, strain A2, residues 90-110; residues 97 to 109 seen in the density; also called P peptide; source: synthetic peptide (ProteoGenix)
B4: Fluorescein-labeled P90-110 peptide (peptide, UniProt P03421 90-110, looked up)
peptide: fluorescein-DPTPSDNPFSKLYKETIETFD
notes: HRSV phosphoprotein P, residues 90-110; Strain A2 is stated for the unlabeled peptide; source: synthetic peptide (ProteoGenix)
B5: GST-P90-110 (domain or fragment, UniProt P03421 90-110, looked up)
chain: DPTPSDNPFSKLYKETIETFD
notes: HRSV phosphoprotein P, strain A2, residues 90-110; pGEX-6P-2 construct; also called P90–110 (GST fusion); not shown: GST, N-terminal, kept
B6: GST-P90-160 (domain or fragment)
chain: DPTPSDNPFSKLYKETIETFDNNEEESSYSYEEINDQTNDNITARLDRIDEKLSEILGMLHTLVVASAGPT
notes: HRSV phosphoprotein P, strain A2, residues 90-160; pGEX-6P-2 construct; not shown: GST, N-terminal, kept

Legend:
[1] = target: GST-P1-241 (full-length HRSV phosphoprotein P fused to GST) (human respiratory syncytial virus, strain A2) (UniProt P03421)
M2-1 = target: T1, M2-1; assay: fluorescence anisotropy competition; displaces 10 nM fluorescein-P90-110 peptide from 1 uM M2-1; 20 mM Tris-Cl pH 7.5, 150 mM NaCl, 0.01% Triton X-100, room temperature, 30 min; settings: protein: recombinant; tags: GST removed by PreScission protease; chain copies: 4; single strand
[2] = target: the molecule itself; assay: crystal structure; M2-1 tetramer mixed with P90-110 in a 1:1 molar ratio, concentrated to 8 mg/ml; sitting drop vapor diffusion at 18°C; 0.2 M trimethylamine N-oxide dihydrate, 0.1 M Tris-HCl pH 8.5, 2% PEG MME 2000; 2.4 Å
[3] = target: B3; assay: as above; settings: both partners purified
[4] = target: T2, GST-P1-241 (full-length HRSV phosphoprotein P fused to GST) (human respiratory syncytial virus, …, UniProt P03421 1-241); assay: pull-down; GST-P constructs from clarified E. coli lysates held on glutathione Sepharose 4B and washed; 1 mg purified M2-1 added, room temperature, 5 min; 25 mM Tris/HCl pH 7.4, 150 mM NaCl, 1 mM DTT; SDS-PAGE, Coomassie staining; settings: both partners purified
T2 construct: pGEX-6P-2 construct; Also used here as the wild-type P of the minigenome rows, where P was expressed from a plasmid in BSRT7 cells (no GST told there); also called WT P; not shown: GST, N-terminal, kept

[5] = target: B2; assay: crystal structure; M2-1 tetramer mixed with P90-110 in a 1:1 molar ratio, concentrated to 8 mg/ml; sitting drop vapor diffusion at 18°C; 0.2 M trimethylamine N-oxide dihydrate, 0.1 M Tris-HCl pH 8.5, 2% PEG MME 2000; 2.4 Å; settings: both partners purified
[6] = target: B2; assay: fluorescence polarisation; fluorescence anisotropy, direct binding; 10 nM fluorescein-labeled P90-110, M2-1 0.1 nM to 300 μM; 20 mM Tris-Cl pH 7.5, 150 mM NaCl, 0.01% Triton X-100; 30 min at room temperature; 384-well; triplicate; apparent; settings: both partners purified
[7] = target: B2; assay: pull-down; GST-P constructs from clarified E. coli lysates held on glutathione Sepharose 4B and washed; 1 mg purified M2-1 added, room temperature, 5 min; 25 mM Tris/HCl pH 7.4, 150 mM NaCl, 1 mM DTT; SDS-PAGE, Coomassie staining; settings: both partners purified

“HRSV M2-1 L148A (from UniProt P04545 1-194) (natural protein)” was tested, and the HRSV minigenome assay, eGFP fluorescence in BSRT7 cells relative to WT M2-1 [1] was 30 % of WT M2-1.

With “HRSV M2-1 R126E (from UniProt P04545 1-194) (natural protein)” the HRSV minigenome assay, eGFP fluorescence in BSRT7 cells relative to WT M2-1 [1] was 30 % of WT M2-1.

Work on B1 yielded an IC50 (M2-1) of 1.7 µM.

In the case of B2, the “stoichiometry N” value [2] is reported as 4, the “stoichiometry N” value [3] is reported as 1 and the binding result [4] is reported as “binds”.

B3: binds [5].

With B4 the Kd [6] was 7.5 µM.

B5: binds [7].

B6: binds [7].
